Values quoted from earlier work in paper PMC6589385.

Molecular target: His37 (UniProt position 37, IIGILHLILWI)
Experiment: NMR
Details: Membrane-bound wild-type AM2 tetrameric channel

Influenza A virus M2 protein (AM2) transmembrane domain, wild type (Influenza A virus)
pKa: 5.9
